Test results taken from patent publication US11266968B2, “Mineralizing biosurfactant used for nucleating silica” (THE UNIVERSITY OF QUEENSLAND, priority 2013, dated 2022).

Columns and labels:
[1] = Precipitation of silica from TEOS by biosurfactants; settings: 400 μM peptide, 25 mM HEPES pH 7.5 and 8.0, 80 mM TEOS, room temperature
Procedure: To test whether biosurfactants SEQ ID NO: 153 and SEQ ID NO: 154 were able to precipitate silica, separate aqueous solutions of SEQ ID NO: 153 and SEQ ID NO: 154 (400 μM) in HEPES buffer (25 mM) at pH 7.5 and 8.0 were prepared and TEOS (80 mM) was added. A solution of each biosurfactant was retained without TEOS as a control. The mixtures were gently stirred at room temperature. A transparent gel-like precipitate formed within a few minutes in those compositions which had TEOS added whereas the control remained a solution. The precipitate was isolated and extensively washed with water and vacuum dried. The precipitate was analyzed by elemental analysis using EDS in conjunction with scanning electron microscopy (SEM, JEOL 6610). […] Excess oxygen, carbon and sulfur also found in the analysis were consistent with entrapped peptide.

[2] = Dynamic light scattering of nanoemulsions and nanocapsules; type: physicochemical; settings: for Number-average diameter (dn) of oil droplets in nanoemulsion / Polydispersity index (PDI) of nanoemulsion: 400 μM peptide, 800 μM ZnCl2, 2% v/v Miglyol 812, HEPES pH 7.0, after sonication; for Increase in number-average diameter of nanoemulsion after dialysis: dialysis 20 hours against HEPES 25 mM, pH 7.5 or 8.0, 10 kDa membrane; for PDI of nanocapsules: 80 mM TEOS, 25 mM HEPES
Procedure: (§1) The size distribution profile of the nanoemulsions and nanocapsules was determined by dynamic light scattering (DLS, Malvern Zetasizer Nano ZS) and the samples were diluted by a factor of 100 prior to the measurement. The morphology and shell thickness of the nanocapsules were examined by transmission electron microscopy (TEM, JEOL 1010, 100 kV accelerating voltage). Samples (2 μL) were taken directly from the reaction mixtures, deposited onto Formvar-coated copper grids (200 mesh), and left to air-dry prior to examination. Samples were also analyzed for high-resolution (HR) TEM (JEOL 2100, 200 kV accelerating voltage) equipped with an energy dispersive X-ray spectroscopy (EDS) detector. The formation of amorphous silica was verified by selected area electron diffraction (SAED) in HRTEM.
Separate solutions of SEQ ID NO: 153 (400 μM) and SEQ ID NO: 154 (400 μM) in HEPES buffer (25 mM, pH 7.0) in the presence of ZnCl2 (800 μM) were mixed with Miglyol® 812 (2% v/v) by sonication (Branson Sonifier 450, 10 W, 4×30 s burst and interspersed with cooling in an ice bath for 60 s). After sonication, the compositions were macroscopically identical and homogeneous with cloudy appearance.
The nanoemulsion compositions (1 mL) were dialyzed against HEPES buffer (500 mL, 25 mM, pH 7.5 or 8.0) using a 10 kDa cellulose membrane to adjust pH of each nanoemulsion and to remove residual peptide. After dialysis for 20 hours there was only a slight increase, approximately 5%, in the number-average diameter of nanoemulsions stabilized by either SEQ ID NO: 153 or SEQ ID NO: 154 and the PDIs remained similar. The nanoemulsions were stable to dialysis.
(§2) Each of the dialyzed nanoemulsion compositions from Example 2 at pH 7.5 or 8.0 were divided into a number of separate glass vials. One composition of each peptide nanoemulsion at each pH was retained as a control. To the other compositions, three concentrations of TEOS were added to separate vials, 20 mM, 40 mM and 80 mM, and the compositions were gently stirred for 20 to 50 hours. The compositions were then analyzed by DLS and a size increase consistent with the formation of a thick layer surrounding the oil droplet core in TEOS-containing solutions was observed.

[3] = TEM measurement of nanocapsule silica shell thickness and diameter; type: physicochemical
Procedure: as §1, §2
The shell thickness of at least 100 individual nanocapsules were measured by TEM (a dark ring around the perimeter of the bright core). The silica layer formed on SEQ ID NO: 153 and SEQ ID NO: 154 nanoemulsions at pH 7.5 was 22±5 nm and 12±2 nm thick respectively and at pH 8.0, 35±5 nm and 27±6 nm respectively.
SEQ ID NO: 155 was used to facilitate formation and stabilization of nanoemulsions, and subsequently direct nucleation and growth of silica shell encasing the nanoemulsion template. A solution of SEQ ID NO: 155 (115 μM) in HEPES buffer (25 mM, pH 7.5) was mixed with Miglyol® 812 oil (10% v/v) by sonication at 10 W using Branson Sonifier 450 for 4×30 s burst and interspersed with cooling in an ice bath for 60 s. An aliquot of SEQ ID NO: 155 nanoemulsions (400 μL) was transferred to a glass vial and added with TEOS (80 mM). The mixture was then stirred at room temperature for 20 h to form silica shell surrounding the nanoemulsions.

[4] = pH 7.5, 20 hours silicification
[5] = pH 8.0, 20 hours silicification
[6] = pH 7.5, at least 100 nanocapsules by TEM
[7] = pH 8.0, at least 100 nanocapsules by TEM
[8] = 115 μM protein, 10% v/v Miglyol 812, pH 7.5, 80 mM TEOS, 20 h

## Ac-MKQLAHSVSRLEHA-RKKRKKRKKRKKGGGY-CONH2 (Ac-MKQLAHSVSRLEHARKKRKKRKKRKKGGGY-NH2) [SEQ ID NO: 154, custom synthesized mineralizing biosurfactant peptide, Mw 3632.4]
[1]
  Ability to precipitate/nucleate silica: can nucleate silica
[2]
  Number-average diameter (dn) of oil droplets in nanoemulsion: ~40 nm
  Polydispersity index (PDI) of nanoemulsion: 0.293
  Increase in number-average diameter of nanoemulsion after dialysis: approximately 5%
[2]; [4]
  PDI of nanocapsules: 0.146
[2]; [5]
  PDI of nanocapsules: 0.233
[3]; 30 hours, 20 mM TEOS, 25 mM HEPES pH 7.5
  Silica shell thickness: 5±1 nm
[3]; 30 hours, 40 mM TEOS, 25 mM HEPES pH 7.5
  Silica shell thickness: 10±2 nm
[3]; 30 hours, 80 mM TEOS, 25 mM HEPES pH 7.5
  Silica shell thickness: 16±3 nm
[3]; [6]
  Silica shell thickness: 12±2 nm
[3]; [7]
  Silica shell thickness: 27±6 nm

## Ac-MKQLAHSVSRLEHA-SSKKSGSYGGSKGSKRRIL-NH2 (Ac-MKQLAHSVSRLEHASSKKSGSYGGSKGSKRRIL-NH2) [SEQ ID NO: 153, custom synthesized mineralizing biosurfactant peptide, Mw 3643.2]
[1]
  Ability to precipitate/nucleate silica: can nucleate silica
[2]
  Number-average diameter (dn) of oil droplets in nanoemulsion: ~80 nm
  Polydispersity index (PDI) of nanoemulsion: 0.329
  Increase in number-average diameter of nanoemulsion after dialysis: approximately 5%
[2]; [4]
  PDI of nanocapsules: 0.242
[2]; [5]
  PDI of nanocapsules: 0.794
[3]; [6]
  Silica shell thickness: 22±5 nm
[3]; [7]
  Silica shell thickness: 35±5 nm

B1: MDPS MKQLADS LHQLARQ VSRLEHA DPS MKQLADS LHQLARQ VSRLEHA DPS MKQLADS LHQLARQ VSRLEHA DPS MKQLADS LHQLARQ VSRLEHA EPS-RKKRKKRKKRKKGGGY (protein)
chain: MDPSMKQLADSLHQLARQVSRLEHADPSMKQLADSLHQLARQVSRLEHADPSMKQLADSLHQLARQVSRLEHADPSMKQLADSLHQLARQVSRLEHAEPSRKKRKKRKKRKKGGGY
notes: recombinant mineralizing biosurfactant protein produced in Escherichia coli
[3]; [8]
  Outer diameter of nanocapsules: 249±29 nm
  Silica shell thickness: 26±2 nm
